# Key:
# [1] = tested on: group A, B, C and E streptococci, S. gordonli, S. salivarius, S. uberis, Bacillus cereus, Pseudomonas aeruginosa and E. coli; assay: Muralytic activity on bacterial strains, Set III; type: cell-based, mix of Gram-positive and Gram-negative bacteria; settings: 50 U of ClyS, 15 minutes
# Description: (§1) Muralytic activity of ClyS was tested on a number of bacterial strains representing a variety of species which were divided into sets (Table 1 and FIG. 10). Set I consisted of S. aureus strains including methicillin-sensitive S. aureus (MSSA) and MRSA. ClyS was active against MSSA and MRSA although differences were observed between S. aureus strains. Set II consisted of different species of staphylococci including S. epidermidis, S. simulans and S. sciuri. […] Set III consisted of a mix of Gram-positive and Gram-negative bacteria including representatives of group A, B, C and E streptococci, oral streptococcal species including S. gordonli, and S. salivarius, as well as S. uberis, Bacillus cereus, Pseudomonas aeruginosa and E. coli.
# (§2) The viability assay of ClyS was tested as previously described (Nelson et al, 2001). Briefly, log phase cultures of S. aureus strain 8325-4 were resuspended in PB to OD600 of 0.8-1.0. 50 U of ClyS or the corresponding volume of PB was added to bacterial cells and aliquots were removed, serially diluted, and plated at 1, 5, 10, 30, and 60 minutes to assess the viability of the treated and control cells. All experiments were performed in triplicate. The activity of ClyS on various bacterial strains was tested as described previously (Schuch et al, 2002). Briefly, log phase bacterial cells were treated with 50 U of ClyS at 37° C. for 15 minutes. […]
# [2] = tested on: S. aureus strain 8325-4; assay: ClyS activity as a function of pH and salt concentration; type: cell-based, Staphylococcus aureus; settings: 50 U, 15 minutes
# Description: The effect of pH on ClyS activity was determined as previously described using the universal buffer system pH 4-10 (Yoong et al). Briefly, log phase 8325-4 cells were resuspended in the universal buffer system and incubated with 50 U of ClyS for 15 minutes. The final pH of each reaction was checked by pH paper. The samples were serially diluted and plated. In controls, PB replaced ClyS.
# Similarly the effect of salt concentration on the lytic activity of ClyS was determined by incubating 50 U of ClyS with log phase 8325-4 cells in PB containing NaCl at a final concentration of 25-500 mM for 15 minutes. The samples were serially diluted and plated to determine the viability counts.
# [3] = tested on: S. aureus strain 8325-4; assay: Viability assay (colony-forming units); type: cell-based, Staphylococcus aureus; settings: 50 U of ClyS, in 30 min
# Description: (§3) The unit activity of ClyS was defined by measuring the spectrophotometric loss of turbidity, indicative of cell lysis, of S. aureus 8325-4 cells upon adding serial dilutions of ClyS. In our assays, 5 micrograms of ClyS corresponded to 1 U of lytic activity. When 50 U of ClyS was added to exponentially growing 8325-4 cells the OD600 dropped to baseline within 5 min (FIG. 7). To confirm that the observed cell lysis corresponds to cell death, staphylococcal viability was determined by enumerating aliquots from the lytic reaction at various time points.
# The viability assay of ClyS was tested as previously described (Nelson et al, 2001). Briefly, log phase cultures of S. aureus strain 8325-4 were resuspended in PB to OD600 of 0.8-1.0. 50 U of ClyS or the corresponding volume of PB was added to bacterial cells and aliquots were removed, serially diluted, and plated at 1, 5, 10, 30, and 60 minutes to assess the viability of the treated and control cells. All experiments were performed in triplicate. The activity of ClyS on various bacterial strains was tested as described previously (Schuch et al, 2002). Briefly, log phase bacterial cells were treated with 50 U of ClyS at 37° C. for 15 minutes. The samples were serially diluted and plated. Control experiments with the addition of phosphate buffer (pH 7.0) were performed under the same conditions.
# [4] = Solubility of expressed lysins and chimeras
# Description: In another embodiment, the lysin is a chimeric protein that comprises an endopeptidase domain of the S. aureus Twort lysin upstream of the phiNM3 CWT domain (SEQ ID NO:1). The chimeric polypeptide is preferably sufficiently soluble in phosphate buffered saline (PBS). Preferred levels of solubility in PBS for the chimeric lysins is at least about 1 mg/ml and more preferably at least about 3 mg/mL. in PBS. […] One example of such a lysin is provided in SEQ ID NO:2 (AD127), shown in FIG. 5A and consisting of the Twort lysin endopeptidase domain attached to the phiNM3 CWT domain (SEQ ID NO:1). The isolated polypeptide of SEQ ID NO:2 (AD 127) was constructed by engineering S. epidermidis autolysin amidase and Twort lysin endopeptidase domains upstream of phiNM3 CWT domain, respectively.
# Traditionally, Bacillus-specific lysins are expressed at high levels and are soluble in E. coli. Therefore, our first attempt was to engineer a 16-amino acid peptide (4) that is conserved in several S. aureus-specific lysins (Lu J Z, Fujiwara T, Komatsuzawa H, Sugai M, Sakon J. 2006. Cell wall-targeting domain of glycylglycine endopeptidase distinguishes among peptidoglycan cross-bridges. (Lue et al. (2006) J. Biol. Chem. 281(1):549-58) The catalytic domain of the Bacillus-specific lysin PlyB was used to generate chimera AD 103 (FIG. 4) (SEQ ID NO: 13). The chimeras were tested for expression, solubility and activity. Then the entire C-terminal CWT domain of PlyB (6) was replaced by the putative C-terminal domain of S. aureus phage Twort lysin (8) to obtain AD 105 (SEQ ID NO: 14). […] Since the lysostaphin catalytic domain […] (10) in AD 112 was of bacterial origin, we attempted to engineer a phage-derived catalytic domain upstream of the lysostaphin CWT. For this, the endopeptidase domain in Twort lysin (14) was used to construct chimera AD 119 (SEQ ID NO:3).
# [5] = tested on: S. aureus 8325-4 cells; assay: Spectrophotometric loss of turbidity (OD600) lytic assay; type: cell-based, Staphylococcus aureus
# Description: as §3
# ClyS activity was measured as previously described (Daniel et al, 2001), with some modifications. Briefly, S. aureus strain 8325-4 was grown to an OD600 of 0.25-0.3, centrifuged, and resuspended in PB to a final OD600 of 0.8-1.0. Two-fold serial dilutions of purified ClyS […] were added to 100 μl of bacterial suspension in 96-well plates (Costar) and the decrease in OD600 was monitored by a Spectramax Plus 384 spectrophotometer (Molecular Devices) over 30 min at 37° C. ClyS activity in units per milliliter was defined as the reciprocal of the highest dilution of lysin that decreased the absorbance by 50% in 15 minutes.
# [6] = tested on: S. aureus strains (MSSA and MRSA); assay: Muralytic activity on bacterial strains, Set I; type: cell-based, Staphylococcus aureus; settings: 50 U of ClyS, 15 minutes
# Description: as §1, §2
# [7] = tested on: staphylococci; assay: Lytic activity of chimera lysates against staphylococci; type: cell-based; settings: qualitative
molecule,measurement,setting,value
"ClyS: chimeric lysin: Twort lysin endopeptidase domain attached to the phiNM3 CWT domain, 280 amino acid residues (protein, Chimeric of Staphylococcus aureus bacteriophage Twort domain and Staphylococcus aureus phage phiNM3 CWT domain, chimeric lysin: Twort lysin endopeptidase domain attached to the phiNM3 CWT domain, 280 amino acid residues) METLKQAESYIKSKVNTGTDFDGLYGYQCMDLAVDYIYHVTDGKIRMWGNAKDAINNSFGGTATVYKNYPAFRPKYGDVVVWTTGNFATYGHIAIVTNPDPYGDLQYVTVLEQNWNGNGIYKTELATIRTHDYTGITHFIRPNFATESSVKKKDTKKKPKPSNRDGLNKDKIVYDRTNINYNMVLQGKSASKITVGSKAPYNLKWSKGAYFNAKIDGLGATSATRYGDNRTNYRFDVGQAVYAPGTLIYVFEIIDGWCRIYWNNHNEWIWHERLIVKEVF",muralytic activity against Set III organisms,[1],no activity
same,activity at physiological pH,[2],partial yet significant activity
same,activity at physiological salt concentrations,[2],functioned well
same,NaCl concentration above which activity deteriorated,[2]; 25-500 mM NaCl in PB,above 400 mM
same,decrease in viability,[3],approximately 3 logs
same,solubility,[4],very high
same,time for OD600 to drop to baseline,"[5]; 50 U of ClyS, exponentially growing 8325-4 cells",≤ 5 min
same,amount corresponding to 1 U of lytic activity,[5]; unit = reciprocal of highest dilution that decreased absorbance by 50% in 15 minutes,5 micrograms
same,muralytic activity against MRSA,[6],active
same,muralytic activity against MSSA,[6],active
same,lytic activity against staphylococci,[7],active

# — patent US11827911B2, “Chimeric bacteriophage lysin with activity against Staphylococci bacteria” (priority 2008, dated 2023)
